{
  "source": "paper PMC6959987",
  "key": {"[1]": {"molecular_target": "Augmin-GFP (purified mitotic Augmin complex) (Drosophila | Drosophila (endogenous in embryos)) (UniProt Q9W0G7)", "assay": "fluorescence microscopy of junctions between microtubules loaded with purified complexes; taxol-stabilised Rhodamine-MTs incubated with γ-TuRC-GFP and HiLyte Fluor 488-MTs incubated with Augmin-GFP, each pelleted through 15% glycerol, mixed 1:1 for 10 min at room temperature, fixed and …"}, "[2]": {"molecular_target": "Augmin-GFP (purified mitotic Augmin complex) (Drosophila | Drosophila (endogenous in embryos)) (UniProt Q9W0G7)"}, "[3]": {"molecular_target": "Augmin-GFP (purified mitotic Augmin complex) (Drosophila | Drosophila (endogenous in embryos)) (UniProt Q9W0G7)", "assay": "fluorescence microscopy of junctions between microtubules loaded with purified complexes; as the junction assay, but with HiLyte 647-labelled GMPCPP MT seeds (1:10) to mark the minus ends"}},
  "data": [
    {"substance": "γ-TuRC-GFP (purified mitotic γ-Tubulin Ring Complex) (from UniProt P42271 1-457; P42271 1-457)", "values": [
      {"measurement": "percent of γ-TuRC-containing RhodMTs that terminate at an Augmin-containing 488MT", "setting": "[1]", "result": 55, "unit": "%"},
      {"measurement": "x50 (time at which 50% of Tubulin polymerisation was achieved) with Augmin-GFP added to γ-TuRC-GFP; γ-TuRC-GFP alone 16.5 mins, control 31.5mins", "setting": "[2]", "result": 9.5, "unit": "min"},
      {"measurement": "percent of γ-TuRC-RhodMTs generating branches on Augmin-488MTs", "setting": "[3]", "result": 64, "unit": "%"}
    ]}
  ]
}
